# The DeepSol protein solubility set
# Experiment: soluble on expression in E. coli; label from the status in PepcDB or PDB records
row,Sequence,soluble on expression in E. coli
1,MEELTIWEQHTATLYKDPRRGFGIAVSGGHDRASGSVVVSDVVPGGPAEGRLRTGDHIVMVNGVSVENVTSAFAIQILKTCTKTANVTVKRPRRVQLPATKASPASGHQLSDQEEADHGRGYEGDSSSGSGRSWGERSRRSRAGRRGRVGSHGRRSSGGGSEANGLDLVSGYKRLPKQDVLMRPLKSVLVKRRNSEEFGVKLGSQIFIKHITESGLAARNHGLQEGDLILQINGVSSANLSLSDTRRLIEKSEGELTLLVLRDSGQFLVNIPPAVSDSDSSLMEDISDLTSELSQAPPSHVPPPPLKGQRSPEDSQTDSPVETPQPRRRERSVNSRAIAEPESPGESRYDIYRVPSRQSLEDRGYSPDTRVVSFPKGASIGLRLAGGNDVGIFVSGVQAGSPADGQGIQEGDEILQVNGMPFRNLTREEAVQFLLGLPPGEDMELVTQSKQDIFKKMVQSRVGDSFYIRTHFELEPSPPYGLGFTRGDVFHVVDTLYPGSGPGHGHSSHGGLWLAARMGRDLREQERGVIPNQSRAEQLASLEAAQRAAGVGPGASVGSNPRAEFWRLRGLRRGTKKASTQRSREDLSALTRQGHYPPYERVVLREASFKRPVVILGPVADIAMKKLTTEMPEEFEIAESMSRTDSPSKIIKLDTVRVIAERDKHALLDVTPSAIERLNYVQYYPIVIFCAPESRPALKALREWLAPASRRSSRRLYAQAQKLQKHSGHLFTATIPLHGTSDSWYQEVKAVIQQQQARPIWTAEDQLNSSSEDLDLPGHGLAASSGDLSCDSRTNSDYEDTDGEGAYTDREGGPQDVDEEVAPTALARSSEPVWVDDHQGLMGHGTTITDKWETQADSHYTQDQRRQDSMRTYKHEALRKKFTRARDVESSDDEGYDWGPATDL,soluble
2,MEELVGLLRIRVKRGINLAQRDTLSSDPFVVITMGSQKLKTRVVENNCNPEWNEELTLALRHPDEPVNLIVYDKDTFTSHDKMGDAKIDIKPFLEVHKMGLQELPDGTEIKRVVPNRENCLAEASSIVSNNGKIVQNMILLLRNVECGEVEIQLEWIDIPGSRGL,not soluble
3,MEEMSMEKIVNDILKEEVYYEKLQNGLDVYFMPKRGFMKKYAILATNYGSNDLEFVPIGEDKKIRVNEGIAHFLEHKMFEQPDGGDAFDKFSKLGVNANAFTNFTMTAYLFSATENFYESLEHLIDYVQTPYFTDENVEKEKGIIAQEIKMYNDDPDWNVYFNCLKAMYVNYPARIDIAGTVDSIYKITKEELYKCYNTFYNPGNMALFVVGDLDVEKVIDVTKKS,not soluble
4,MEERNEQVVEEVKEAQVEEAVTPENSEETVEEKSEAALLQEKVDELQAKLTETEGRTLRLQADFENYKRRVQMDKQAAEKYRAQSLVSDILPALDNFERAMQVEATDEQTKSLLQGMEMVHRQLLEALNKEGVEVIEAVGKQFDPNEHQAIMQVEDSEFESNAVVEEFQKGYKLKDRVIRPSMVKVNQ,not soluble
5,MEEWPALQWSQGTPASGPALQALEEYAFVPRDDESRQGIRTDALLVIRDGRLLYERYAGATGPQTPHLAWSASKSLLAVLLGVAFGEGRFQLQDPAAKFYPPLEAHPDITLADLLHWASGLDWQEDYEYAPLNSSVVAMLYTRGHRDMAAFTVQQAASGPPGQVFRYSSGDSNLLAASLRGMVGEGQYADYPWRALFEPLGITQAVWERDAAGTFVASSYLYLTARDLARIGLLMQRDGRWRDRQLLPKAWVEFCRTPFRGYRANQDVAVAGGHWWLNREVDGAPRPWPDAPADTYAALGHWGQALYVLPAQRLVIVRYGDDRDGSYQHNELLKRVLAAFATPEQPLEHHHHHH,not soluble
6,MEFYDARKWCHYQSPVPSYLAYVPDLSTSNFLATYARAAFETNRFWIGLSRFDYFDPYLWDNGRPVTYTNFGTGTGNFVAEHTLNGKWYLYGNGAKNVFVCSYDPAAPPTFPPPFILTTRQSTITSANSCQPGGPISFLFAYSNDLDPQVVKDSWDLSNIDDYSGYSVYAIAKFDVLEEEDIVYFLDKKLATTYVHSHLSNSSLGFNGTTTGSDSLRIIEVGNVEGIESSQFLNFQKFFNNKDVTVCGSVCLILEKRYPNDEDISKTVSLVRYYHGIVYAVSSINPSGGTQSKAIYNLTSRTNGIFCSTDPSGGNQSKTIYNLTSKTNGLCNFAKDKDIAGLVTSVPMFYPPYPIYCANVLVSGQNITELPSMYVPQSIMYYTVFASVEDHGPLDNFQSFDFSWFNSDEPRYIQHLQSNSTVMDGVTSSGVYYIAPEIYTMKVQYNYTNKMEQAMQVRVYTYDGENSADWIPYCD,not soluble
7,MEGLINALKYLAEHEPIDNFEEIRTRNSPIELPSGLSNFEQNIFLKENLSPKLQNDDSLKTHYWIIREWGGIKSFKQSAENSQLIRQFLSELNSGKLSSGLLKISSLSKLASFIDCERFAIYDSRAIFSLNWLLFKFTNADLFFQPQGRNRELEIRNMNVLFHFSDIKPNYRKPDVSFHQYCGLLQDLAKQVYGKQAKPYHIEMLLFKIATTWICADMDQLIKFDCLRNQDFQTA,not soluble
8,MEGLNVLVTGSTCGLGLHTAKILFKKGANVILTCRDEIRGRHAVESLLSGVSQEQSQKEAERIHLFTLDVTNYNSICNFTDEISRMFKYLHVIINNAGIMGMPFELSVDGIEMHFATNVFGHYVVVERLLPLLLKTDRPDFKSRVIVVSSGLYRNAEAIPQVSKLLGQKTYDYSPKQAYAFSKLANCLYTGALSKMLEPHNVGVYCVRPGFVNGTELGRETHWILRALAAPIIWFIAKTLEQGCETIVYLAETSGNQLKNGSMYYERKEEAYNEMVEVTSIRQVWAILRHLEDTVWKRNTQMTDEQRNHGEMVRELLNESLIV,not soluble
9,MEGSEEHSTDGEISSSEEEDEDPTPAHAIPARPSSVVITPTSASFVIPRKKWDLQDKTVTLHRSPLCRDEDEKEETGNSSYTRGHKRRRGEVHGCTDESYGKRRHLPPGARAPRAPRAPRVPRAPRSPRAPRSNRATRGPRSESRGAGRSTRKQARQERSQRPLPNKPWFDMSLVKPVSKITFVTLPSPLASLTLEPIQDPFLQSMLAVAAHPEIGAWQKVQPRHELRRSYKTLREFFTKSTNKDTWLDARMQAIQNAGLCTLVAMLEETIFWLQEITYHGDLPLAPAEDILLACAMSLSKVILTKLKELAPCFLPNTRDYNFVKQLFYITCATARQNKVVETLSSSYVKQPLCLLAAYAAVAPAYINANCRRRHDEVEFLGHYIKNYNPGTLSSLLTEAVETHTRDCRSASCSRLVRAILSPGTGSLGLFFVPGLNQ,soluble
10,MEGSSSTIARKTWELENSILTVDSPDSTSDNIFYYDDTSQTRFQQEKPWENDPHYFKRVKISALALLKMVVHARSGGTIEIMGLMQGKTDGDTIIVMDAFALPVEGTETRVNAQDDAYEYMVEYSQTNKLAGRLENVVGWYHSHPGYGCWLSGIDVSTQRLNQQHQEPFLAVVIDPTRTVSAGKVEIGAFRTYSKGYKPPDEPVSEYQTIPLNKIEDFGVHCKQYYSLDVTYFKSSLDSHLLDLLWNKYWVNTLSSSPLLGNGDYVAGQISDLAEKLEQAESHLVQSRFGGVVPSSLHKKKEDESQLTKITRDSAKITVEQVHGLMSQVIKDELFNSMRQSNNKSPTDSSDPDPMITY,soluble
11,MEHNQEIMEQFLKLLSENGRAGQSEDLSRLLFYMDGMNRQLDAVRQELQTVKVQLAQAQDTPQKTVLQGMVDGLQSKVRQAQEKLDSLREKIMQCAANAVESFKRVGVTALDKAVSAMGIHKTLEAVQQNISGSLDDARKSIKKVETLGHELRSVGGHLKNAGRAVAGRETQAVDGGQEGRFQAAFLAPMRTAYKMLSSMNNTTLAAIGNVERLETAAEAVREAKKPPVRQTETQEKEQVKELEHKEEPTETQRREKPSIRQTLTEKSEPMDVSDILSDPANIQIFDTVLEESCRQWCDCIGDAPERASGKGFASFFYEVFEQKEQEYKAELKADTRSEKPSIRKALNEKKAEAAARPSPEPERKAPEAAR,not soluble
12,MEIFQKAKAVRLRSHHDKYLVADEDEESVTQERNGSAGAAKWTVEIIPGSTNLIRLKSAYGKYLTASNKPFLLGATGKKVLQTKPSRLDSSLAWEPIRDSALVKLKTRYGNFLRGNGGLPPWRNSVTHDIPHRSATQEWVLWHIDVVEILPANANSDHHHQHLQLQQPPSPLHHSDSLDFTPGSPSRSDRFFRQESTDSLAVGSPPKSEGRVIYYHVADDDDDVEDDSVEVSSFTFKGNGVEELTMRLKEESNVEDVIVCTRSPLNGKLFPLRLQLPPNNADMTVVLVPKSSKSESLLVLISSQVVALSLMFSVFLDLTVAEKFIK,not soluble
